Results from patent publication US20240376207A1 (JIANGSU HENGRUI PHARMACEUTICALS, published 2024).

Tests used:
[1] = biological target: T1, cynomolgus monkey TIGIT expressed on cells (cynomolgus monkey, UniProt A0A7N9I9V4 89-312); experiment: FACS, cells overexpressing target
T1 construct: whole, on cells; also called cells overexpressing cynomolgus monkey TIGIT
Description: (§1) The expression plasmid carrying human or cynomolgus monkey PVRIG gene sequence was transfected into HEK293 cells, and the over-expressing stable transfection monoclonal cell strain was obtained by antibiotic screening and infinite dilution. Overexpressing cells were seeded into a 96-well plate at 2×10⁵ cells/per well. The cells were centrifuged at 300 g for 5 min, the supernatant was then removed, 100 μL of the test antibody was added, and the mixture was incubated at 4° C. for 1 h. The mixture was centrifuged, the supernatant was removed, the plate was washed 3 times with 200 μL of wash buffer (PBS+2% FBS), and then 100 μL of an anti-human IgG secondary antibody (Invitrogen, A-11013) labeled with Alexa Fluor 488 diluted at 1:500 was added. The mixture was incubated at 4° C. for 1 h. The plate was centrifuged, and the supernatant was removed. The plate was washed 3 times with 200 μL of wash buffer (PBS+2% FBS). The cells were resuspended in 100 μL of PBS and tested on a flow cytometer (BD FACS Calibur or BD FACS Canto_II).
(§2) Similarly to Examples 4, 5 and 6, the binding of humanized anti-PVRIG/TIGIT bispecific antibodies to human and cynomolgus monkey TIGIT and blocking of binding of human TIGIT to ligand were detected, where PVRIG protein was replaced with TIGIT and PVRL2 was replaced with PVR.

[2] = biological target: T2, human PVRIG antigen (AcroBiosystem, PVG-H52H4) (human, UniProt Q6DKI7 41-171, limits assumed); experiment: SPR (Biacore X100), antibody captured on Protein A chip, 1:1 fit
T2 sequence (looked up): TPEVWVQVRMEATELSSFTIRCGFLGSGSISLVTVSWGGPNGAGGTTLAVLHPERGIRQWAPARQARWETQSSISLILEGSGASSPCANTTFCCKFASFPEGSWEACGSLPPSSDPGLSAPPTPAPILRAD
From the text: The affinity of the humanized bispecific antibodies for human PVRIG, cynomolgus monkey PVRIG and human TIGIT was detected using Biacore. Humanized bispecific antibodies were each captured on a Protein A biosensor chip (GE lifesciences, 29127557) of a Biacore instrument (Biacore X100, GE), and then human PVRIG antigen (AcroBiosystem, PVG-H52H4), cynomolgus monkey PVRIG antigen (SEQ ID NO: 1), or human TIGIT antigen (AcroBiosystem, TIT-H52H3) at a series of concentration gradients each flowed over the chip surface. The reaction signals were detected in real time using a Biacore instrument (Biacore X100, GE) to obtain association and dissociation curves. The data obtained from the experiment were fitted using the (1:1) Binding model with the BiacoreX100 evaluation software 2.0 GE to obtain affinity values (see Table 31).

[3] = biological target: T3, mouse IgG2a Fc-tagged human PVRIG (h-PVRIG-mIgG2a Fc) recombinant protein (human, UniProt Q6DKI7 41-171, limits assumed); experiment: competition ELISA; human PVRIG coated, competitor human PVRL2
T3 construct: bought from Acrobiosystems; not shown: mouse IgG2a Fc tag
T3 sequence (looked up): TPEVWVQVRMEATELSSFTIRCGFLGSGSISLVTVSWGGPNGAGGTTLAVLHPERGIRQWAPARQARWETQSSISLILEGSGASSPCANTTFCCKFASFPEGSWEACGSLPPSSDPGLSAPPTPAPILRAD
Description: The h-PVRIG-mIgG2a Fc protein (at a concentration of 1 μg/mL) was coated on the 96-well microplate at 100 μL per well, and incubated overnight at 4° C. The plate was washed three times with wash buffer at 250 μL per well. For each wash, the plate was shaken for 10 s to ensure adequate cleaning. A blocking solution was added at 300 μL/well, and the plate was incubated at room temperature for 1 h. The plate was washed three times with wash buffer at 250 μL per well. For each wash, the plate was shaken for 10 s to ensure adequate cleaning. 50 μL of diluted test anti-PVRIG antibody and 50 μL of his-tagged ligand PVRL2 were added to each well, and the plate was incubated at 37° C. for 1 h. The plate was washed three times with wash buffer at 250 μL per well. The HRP-labeled anti-his-tagged secondary antibody (Genscrpit) diluted at 1:2000 was added at 100 μL per well. The plate was incubated at 37° C. for 1 h. The plate was washed three times with wash buffer at 250 μL per well. TMB was added at 100 μL/well, and the plate was incubated in the dark for 15 min. 0.16 M sulfuric acid was added at 50 μL/well. OD values at 450 nm were measured using a Thermo MμtLtiSkanFc microplate reader, and the IC₅₀ values of the anti-PVRIG antibodies blocking the binding of PVRIG to PVRL2 were calculated.
(§3) Binding of the humanized anti-PVRIG/TIGIT bispecific antibodies to human and cynomolgus monkey PVRIG and their blocking of the ligand of human PVRIG were detected according to the methods of Examples 4, 5 and 6.

[4] = biological target: T4, human PVRIG expressed on cells (human, UniProt Q6DKI7 41-326); experiment: FACS, cells overexpressing target
T4 construct: whole, on cells; also called Human PVRIG FACS; cells overexpressing human PVRIG
T4 sequence (looked up): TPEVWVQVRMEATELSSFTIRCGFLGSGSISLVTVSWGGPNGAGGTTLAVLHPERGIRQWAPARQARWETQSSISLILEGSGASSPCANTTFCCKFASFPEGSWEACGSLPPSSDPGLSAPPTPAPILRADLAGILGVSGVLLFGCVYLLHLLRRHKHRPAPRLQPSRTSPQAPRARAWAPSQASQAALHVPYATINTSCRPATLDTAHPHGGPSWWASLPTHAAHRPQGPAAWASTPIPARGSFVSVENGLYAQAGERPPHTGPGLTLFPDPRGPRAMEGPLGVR
Description: as §1, §3

[5] = biological target: T5, cynomolgus monkey PVRIG expressed on cells (cynomolgus monkey, UniProt A0A2K5WVV8 1-322); experiment: FACS, cells overexpressing target
T5 construct: whole, on cells; also called Monkey PVRIG FACS; cells overexpressing cynomolgus monkey PVRIG
T5 sequence: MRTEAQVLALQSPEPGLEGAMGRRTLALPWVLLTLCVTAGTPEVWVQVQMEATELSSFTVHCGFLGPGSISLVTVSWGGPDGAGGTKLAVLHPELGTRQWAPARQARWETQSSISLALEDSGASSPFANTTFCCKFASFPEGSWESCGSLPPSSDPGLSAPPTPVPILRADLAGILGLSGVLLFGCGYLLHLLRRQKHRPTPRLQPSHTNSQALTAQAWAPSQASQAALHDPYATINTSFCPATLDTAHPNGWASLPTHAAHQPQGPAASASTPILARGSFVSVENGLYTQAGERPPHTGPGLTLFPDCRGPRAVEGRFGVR
Description: as §1, §3

[6] = biological target: cynomolgus monkey TIGIT recombinant protein (cynomolgus monkey, UniProt A0A7N9I9V4 89-209); experiment: ELISA, coated antigen
Chain of cynomolgus monkey TIGIT recombinant protein (A0A7N9I9V4 entry or part of it): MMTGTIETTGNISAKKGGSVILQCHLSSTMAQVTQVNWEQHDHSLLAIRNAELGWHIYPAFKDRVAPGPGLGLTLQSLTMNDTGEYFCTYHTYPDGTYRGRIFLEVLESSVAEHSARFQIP
Description: (§4) A human, cynomolgus monkey, or mouse PVRIG protein (at a concentration of 1 μg/mL) was coated on a 96-well microplate at 100 μL per well, and incubated overnight at 4° C. The plate was washed three times with wash buffer at 250 μL per well. For each wash, the plate was shaken for 10 s to ensure adequate cleaning. A blocking solution (PBS+0.05% Tween20+1% BSA) was added at 300 μL/well, and the plate was incubated at room temperature for 1 h. The plate was washed three times with wash buffer at 250 μL per well. For each wash, the plate was shaken for 10 s to ensure adequate cleaning. Dilutions of the test anti-PVRIG antibodies were added at 100 μL/well. The plate was incubated at 37° C. for 1 h. The plate was washed three times with wash buffer at 250 μL per well. The […] anti-human IgG secondary antibody (Sigma, A8667) was added at 100 μL per well. The plate was incubated at 37° C. for 1 h. The plate was washed three times with wash buffer at 250 μL per well. TMB was added at 100 μL/well, and the plate was incubated in the dark for 15 min. 0.16 M sulfuric acid was added at 50 μL/well. The OD values at 450 nm were read by using a Thermo MultiSkanFc microplate reader, and the EC₅₀ values of the binding of the anti-PVRIG antibodies to PVRIG were calculated.
as §2

[7] = biological target: T6, his-tagged human PVRIG (h-PVRIG-his) recombinant protein (human, UniProt Q6DKI7 41-171, limits assumed); experiment: ELISA, coated antigen
T6 construct: bought from Acrobiosystems; also called Human PVRIG-his; human PVRIG recombinant protein; not shown: his tag
T6 sequence (looked up): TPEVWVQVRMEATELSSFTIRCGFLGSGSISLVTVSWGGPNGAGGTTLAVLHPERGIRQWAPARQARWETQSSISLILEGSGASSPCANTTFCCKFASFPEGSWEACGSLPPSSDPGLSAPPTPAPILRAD
Description: as §4, §3

[8] = biological target: T7, his-tagged cynomolgus monkey PVRIG (cyno-PVRIG-his) recombinant protein (cynomolgus monkey); experiment: ELISA, coated antigen
T7 construct: expressed in HEK293, purified by Ni-NTA; also called Monkey PVRIG-his; cynomolgus monkey PVRIG recombinant protein
T7 chain: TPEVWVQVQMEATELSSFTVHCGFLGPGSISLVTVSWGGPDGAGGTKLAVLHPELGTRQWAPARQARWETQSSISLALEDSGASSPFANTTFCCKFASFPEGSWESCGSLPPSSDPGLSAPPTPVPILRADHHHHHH
Description: as §4, §3

T1 sequence (A0A7N9I9V4 entry or part of it): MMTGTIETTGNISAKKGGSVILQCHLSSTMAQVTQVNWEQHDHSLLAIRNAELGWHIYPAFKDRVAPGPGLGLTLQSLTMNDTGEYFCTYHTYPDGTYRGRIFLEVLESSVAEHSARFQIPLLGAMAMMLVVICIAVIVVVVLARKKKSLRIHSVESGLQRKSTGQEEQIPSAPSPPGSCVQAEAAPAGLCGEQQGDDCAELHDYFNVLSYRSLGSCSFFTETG

B1: humanized anti-PVRIG/TIGIT bispecific antibody 1708-151H7 (bispecific antibody, human IgG4 S228P, kappa)
heavy: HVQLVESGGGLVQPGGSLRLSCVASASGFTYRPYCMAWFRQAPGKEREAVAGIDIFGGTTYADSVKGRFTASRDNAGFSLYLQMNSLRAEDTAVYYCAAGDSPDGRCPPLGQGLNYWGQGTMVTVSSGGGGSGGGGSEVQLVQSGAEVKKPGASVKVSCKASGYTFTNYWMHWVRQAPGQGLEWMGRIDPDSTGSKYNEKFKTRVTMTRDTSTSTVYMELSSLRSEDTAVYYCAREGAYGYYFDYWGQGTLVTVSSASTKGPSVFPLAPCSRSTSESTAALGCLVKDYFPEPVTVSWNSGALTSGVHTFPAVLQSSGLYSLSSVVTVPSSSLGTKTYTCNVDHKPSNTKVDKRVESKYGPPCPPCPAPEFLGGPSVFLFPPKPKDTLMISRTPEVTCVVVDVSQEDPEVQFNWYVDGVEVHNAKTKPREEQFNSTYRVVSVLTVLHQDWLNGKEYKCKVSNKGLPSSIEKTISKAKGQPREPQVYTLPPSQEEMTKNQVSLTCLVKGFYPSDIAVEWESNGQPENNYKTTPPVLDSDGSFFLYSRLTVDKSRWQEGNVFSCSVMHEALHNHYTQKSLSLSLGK
light: DIQMTQSPSSLSASVGDRVTITCRASENIYSYLAWYQQKPGKSPKLLIYNARTLAEGVPSRFSGSGSGTDFTLTISSLQPEDFATYYCQYHSGSPLPFGGGTKVEIKRTVAAPSVFIFPPSDEQLKSGTASVVCLLNNFYPREAKVQWKVDNALQSGNSQESVTEQDSKDSTYSLSSTLTLSKADYEKHKVYACEVTHQGLSSPVTKSFNRGEC
- EC50 [1]: 0.012 nM
- Kd [2]: 0.125 nM
- koff [2]: 0.000757 s⁻¹
- kon [2]: 6.06e+06 M⁻¹ s⁻¹
- IC50 [3]: 0.598 nM
- EC50 [4]: 0.043 nM
- EC50 [5]: 11.5 nM
- EC50 [6]: 0.119 nM
- EC50 [7]: 0.679 nM
- EC50 [8]: 9.44 nM
